Assay results taken from patent US20230109393A1.

Target: ACE2-ECD-sFc fusion protein (Homo sapiens)
Assay: ELISA, plate coated with ACE2 ECD-sFc

Row | Substance | EC50 [µg/mL]
1 | S1-RBD-His protein (from UniProt P0DTC2 331-530) (ligand) | 0.4
2 | S1-RBD-His-HRP (from UniProt P0DTC2 331-530) (ligand) | 0.19
